The results in this text go back to patent US10562947B2, “Compositions and methods for preventing or treating diseases, conditions or processes characterized by aberrant fibroblast proliferation and extracellular matrix deposition” (MOERAE MATRIX, INC., priority 2011, dated 2020).

What all share (assay): Kinase Profiling Assay
What all share (type): biochemical
Details in all cases: 100 μM peptide

The target of one experiment is CLK3(h) (Homo sapiens, UniProt P49761). The essentials: (§1)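 MK2 inhibitory peptides were screened for specificity across a commercial panel of 266 human kinases, and each kinase activity measurement was run in duplicate.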
For another experiment, the target named is T1, PDK1(h) (Homo sapiens, UniProt O15530).
T1 sequence (O15530 1-556): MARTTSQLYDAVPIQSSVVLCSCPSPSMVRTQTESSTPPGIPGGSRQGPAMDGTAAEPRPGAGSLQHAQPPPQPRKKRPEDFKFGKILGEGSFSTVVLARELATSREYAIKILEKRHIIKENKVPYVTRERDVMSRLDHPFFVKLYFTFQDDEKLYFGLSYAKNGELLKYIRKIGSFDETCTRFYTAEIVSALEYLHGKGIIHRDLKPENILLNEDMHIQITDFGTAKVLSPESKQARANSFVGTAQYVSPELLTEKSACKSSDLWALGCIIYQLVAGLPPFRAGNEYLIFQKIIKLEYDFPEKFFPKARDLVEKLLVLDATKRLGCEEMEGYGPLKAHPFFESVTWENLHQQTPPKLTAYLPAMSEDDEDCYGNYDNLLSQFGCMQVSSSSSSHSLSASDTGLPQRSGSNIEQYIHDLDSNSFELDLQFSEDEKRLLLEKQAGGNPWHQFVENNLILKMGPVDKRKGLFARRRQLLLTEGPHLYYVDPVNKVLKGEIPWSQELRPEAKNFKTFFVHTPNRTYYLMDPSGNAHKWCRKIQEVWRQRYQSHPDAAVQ
An outline of the steps:
as §1

In another experiment the target is cKit(h) (Homo sapiens, UniProt P10721). The essentials: as §1
In a further experiment the target is SRPK1(h) (Homo sapiens, UniProt Q96SB4). An outline of the steps: as §1
The target in the next experiment is T2, IGF-1R(h), activated (Homo sapiens, UniProt P08069).
T2 construct: purchased Millipore
The essentials:
as §1

A further experiment addresses CSK(h) (Homo sapiens, UniProt P41240). An outline of the steps: as §1
A further experiment deals with CaMKIIγ(h) (Homo sapiens, UniProt Q13555). An outline of the steps: as §1
For another experiment, the target named is DAPK2(h) (Homo sapiens, UniProt Q9UIK4). The essentials:
as §1

A further experiment has as its target EGFR(L861Q)(h) (Homo sapiens, UniProt P00533, L861Q). An outline of the steps:
as §1

A further experiment deals with T3, GCK(h) (Homo sapiens, UniProt Q12851).
T3 construct: purchased Millipore
T3 sequence (Q12851 1-820): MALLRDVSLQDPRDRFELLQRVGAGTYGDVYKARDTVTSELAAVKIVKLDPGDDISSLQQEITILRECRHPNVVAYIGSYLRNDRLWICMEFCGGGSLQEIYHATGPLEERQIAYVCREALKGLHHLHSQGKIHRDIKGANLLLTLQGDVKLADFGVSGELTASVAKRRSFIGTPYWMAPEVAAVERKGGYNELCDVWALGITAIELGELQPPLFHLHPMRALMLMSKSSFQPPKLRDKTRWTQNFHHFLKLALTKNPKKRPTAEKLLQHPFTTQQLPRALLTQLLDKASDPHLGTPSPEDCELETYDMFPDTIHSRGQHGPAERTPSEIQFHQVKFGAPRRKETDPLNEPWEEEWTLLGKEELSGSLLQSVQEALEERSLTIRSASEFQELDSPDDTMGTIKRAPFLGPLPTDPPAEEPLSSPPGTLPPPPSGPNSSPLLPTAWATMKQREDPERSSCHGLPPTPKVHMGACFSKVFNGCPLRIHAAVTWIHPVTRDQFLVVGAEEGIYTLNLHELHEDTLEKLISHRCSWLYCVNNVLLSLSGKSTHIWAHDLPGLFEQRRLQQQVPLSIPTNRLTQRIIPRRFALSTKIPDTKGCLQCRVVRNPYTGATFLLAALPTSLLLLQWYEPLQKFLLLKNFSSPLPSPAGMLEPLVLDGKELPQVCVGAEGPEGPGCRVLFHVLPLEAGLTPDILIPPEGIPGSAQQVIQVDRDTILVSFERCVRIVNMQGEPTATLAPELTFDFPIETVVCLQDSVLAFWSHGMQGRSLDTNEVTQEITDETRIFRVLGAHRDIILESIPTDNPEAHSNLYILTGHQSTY
The essentials:
as §1

Another experiment has as its target FGFR2(h) (Homo sapiens, UniProt P21802). The essentials: as §1
The target in a further experiment is T4, GSK3β(h) (Homo sapiens, UniProt P49841).
T4 construct: purchased Millipore
An outline of the steps: as §1

The target of a further experiment is Syk(h) (Homo sapiens, UniProt P43405). An outline of the steps: as §1
Another experiment concerns the target Rsk3(h) (Homo sapiens, UniProt Q15349). An outline of the steps:
as §1

In a further experiment the target is Abl(h) (Homo sapiens, UniProt P00519). An outline of the steps:
as §1

The next experiment has as its target Abl(Y253F)(h) (Homo sapiens, UniProt P00519, Y253F). The essentials: as §1
For another experiment, the target named is SIK(h) (Homo sapiens, UniProt P57059). The essentials: as §1
SIK(h), sequence (P57059 whole entry): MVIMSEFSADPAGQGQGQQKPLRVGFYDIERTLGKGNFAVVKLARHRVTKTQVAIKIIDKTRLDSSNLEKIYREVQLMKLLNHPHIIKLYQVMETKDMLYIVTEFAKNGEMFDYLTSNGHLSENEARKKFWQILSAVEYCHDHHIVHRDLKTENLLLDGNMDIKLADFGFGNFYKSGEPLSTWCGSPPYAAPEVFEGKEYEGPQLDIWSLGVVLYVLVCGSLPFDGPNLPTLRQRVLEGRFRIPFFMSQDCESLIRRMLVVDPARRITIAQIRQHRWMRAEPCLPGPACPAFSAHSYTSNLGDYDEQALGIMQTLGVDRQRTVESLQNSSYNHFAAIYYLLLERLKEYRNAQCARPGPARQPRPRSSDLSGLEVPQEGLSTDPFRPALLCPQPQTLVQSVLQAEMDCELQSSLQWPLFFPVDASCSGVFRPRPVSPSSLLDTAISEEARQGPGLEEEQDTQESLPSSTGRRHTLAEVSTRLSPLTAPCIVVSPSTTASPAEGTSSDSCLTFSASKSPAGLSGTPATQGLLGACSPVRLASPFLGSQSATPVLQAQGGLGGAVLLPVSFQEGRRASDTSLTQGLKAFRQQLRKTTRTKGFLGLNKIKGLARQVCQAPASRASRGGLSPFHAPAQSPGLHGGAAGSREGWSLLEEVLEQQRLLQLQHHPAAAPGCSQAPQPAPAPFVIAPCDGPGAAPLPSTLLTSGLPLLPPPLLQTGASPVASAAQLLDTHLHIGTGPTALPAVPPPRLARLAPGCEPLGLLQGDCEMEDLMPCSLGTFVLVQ

CaMKIIγ(h), sequence (Q13555 whole entry): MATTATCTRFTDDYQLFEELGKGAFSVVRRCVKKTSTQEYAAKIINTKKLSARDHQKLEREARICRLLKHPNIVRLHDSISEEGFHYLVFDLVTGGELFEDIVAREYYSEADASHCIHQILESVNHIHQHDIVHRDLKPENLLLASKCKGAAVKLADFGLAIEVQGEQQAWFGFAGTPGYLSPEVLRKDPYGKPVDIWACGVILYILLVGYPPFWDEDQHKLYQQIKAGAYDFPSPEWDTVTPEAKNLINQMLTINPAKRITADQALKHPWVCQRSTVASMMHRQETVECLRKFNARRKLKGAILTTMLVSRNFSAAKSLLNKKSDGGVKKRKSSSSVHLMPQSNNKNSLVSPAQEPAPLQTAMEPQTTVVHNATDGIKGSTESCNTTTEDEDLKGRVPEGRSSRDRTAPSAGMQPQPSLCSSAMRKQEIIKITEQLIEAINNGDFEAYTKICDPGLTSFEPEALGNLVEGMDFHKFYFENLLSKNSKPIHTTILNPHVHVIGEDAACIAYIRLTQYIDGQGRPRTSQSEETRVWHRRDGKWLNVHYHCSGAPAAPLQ
T4 sequence (P49841 whole entry): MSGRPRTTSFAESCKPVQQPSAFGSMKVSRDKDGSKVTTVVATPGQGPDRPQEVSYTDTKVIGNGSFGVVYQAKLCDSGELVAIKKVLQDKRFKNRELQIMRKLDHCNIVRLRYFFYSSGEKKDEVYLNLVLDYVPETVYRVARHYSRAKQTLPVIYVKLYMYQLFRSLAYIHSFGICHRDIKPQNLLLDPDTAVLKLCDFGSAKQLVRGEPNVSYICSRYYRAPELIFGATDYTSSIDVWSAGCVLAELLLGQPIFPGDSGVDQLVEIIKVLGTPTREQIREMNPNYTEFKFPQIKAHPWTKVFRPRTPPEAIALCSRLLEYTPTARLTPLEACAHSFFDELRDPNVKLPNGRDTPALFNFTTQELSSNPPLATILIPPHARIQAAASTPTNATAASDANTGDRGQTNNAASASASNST
Rsk3(h), sequence (Q15349 whole entry): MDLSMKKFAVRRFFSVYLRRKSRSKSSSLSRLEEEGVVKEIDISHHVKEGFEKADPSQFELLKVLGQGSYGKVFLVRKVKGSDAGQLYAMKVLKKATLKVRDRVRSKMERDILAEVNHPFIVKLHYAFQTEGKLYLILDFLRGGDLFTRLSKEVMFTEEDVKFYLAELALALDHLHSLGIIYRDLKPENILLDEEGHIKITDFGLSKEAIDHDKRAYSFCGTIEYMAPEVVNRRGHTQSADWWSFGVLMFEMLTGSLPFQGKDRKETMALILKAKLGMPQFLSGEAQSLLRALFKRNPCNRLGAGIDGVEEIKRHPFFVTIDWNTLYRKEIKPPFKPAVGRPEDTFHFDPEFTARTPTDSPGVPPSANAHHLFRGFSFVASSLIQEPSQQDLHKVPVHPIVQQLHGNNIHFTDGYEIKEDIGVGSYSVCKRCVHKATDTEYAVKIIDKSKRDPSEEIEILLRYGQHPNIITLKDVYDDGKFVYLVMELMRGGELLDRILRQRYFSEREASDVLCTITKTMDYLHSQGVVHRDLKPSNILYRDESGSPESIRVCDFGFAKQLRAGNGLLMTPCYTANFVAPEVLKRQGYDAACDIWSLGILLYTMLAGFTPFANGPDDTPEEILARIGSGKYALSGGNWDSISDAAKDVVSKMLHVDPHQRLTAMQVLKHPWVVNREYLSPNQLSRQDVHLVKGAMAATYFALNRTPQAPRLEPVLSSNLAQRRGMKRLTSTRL
DAPK2(h), sequence (Q9UIK4 whole entry): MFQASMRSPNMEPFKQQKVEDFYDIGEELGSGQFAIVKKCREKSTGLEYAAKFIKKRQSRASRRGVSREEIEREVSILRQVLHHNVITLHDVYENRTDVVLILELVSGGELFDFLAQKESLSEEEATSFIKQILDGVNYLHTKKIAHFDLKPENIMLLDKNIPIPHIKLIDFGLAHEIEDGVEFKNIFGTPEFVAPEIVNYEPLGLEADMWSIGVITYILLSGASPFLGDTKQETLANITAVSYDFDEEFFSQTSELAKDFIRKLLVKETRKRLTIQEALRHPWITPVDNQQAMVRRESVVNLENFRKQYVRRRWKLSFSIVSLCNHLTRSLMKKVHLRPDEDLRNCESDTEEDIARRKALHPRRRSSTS
CSK(h), sequence (P41240 whole entry): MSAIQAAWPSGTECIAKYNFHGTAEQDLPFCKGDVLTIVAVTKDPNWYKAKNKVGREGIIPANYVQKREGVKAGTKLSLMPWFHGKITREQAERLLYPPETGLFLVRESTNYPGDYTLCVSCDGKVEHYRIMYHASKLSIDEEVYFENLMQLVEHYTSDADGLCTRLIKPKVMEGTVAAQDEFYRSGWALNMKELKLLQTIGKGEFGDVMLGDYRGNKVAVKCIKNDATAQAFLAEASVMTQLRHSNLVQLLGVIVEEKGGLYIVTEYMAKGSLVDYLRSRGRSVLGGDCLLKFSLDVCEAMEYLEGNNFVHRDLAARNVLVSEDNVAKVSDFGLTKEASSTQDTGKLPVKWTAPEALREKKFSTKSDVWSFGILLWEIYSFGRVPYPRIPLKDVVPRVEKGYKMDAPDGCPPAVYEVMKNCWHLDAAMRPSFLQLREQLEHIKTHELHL
CLK3(h), sequence (P49761 whole entry): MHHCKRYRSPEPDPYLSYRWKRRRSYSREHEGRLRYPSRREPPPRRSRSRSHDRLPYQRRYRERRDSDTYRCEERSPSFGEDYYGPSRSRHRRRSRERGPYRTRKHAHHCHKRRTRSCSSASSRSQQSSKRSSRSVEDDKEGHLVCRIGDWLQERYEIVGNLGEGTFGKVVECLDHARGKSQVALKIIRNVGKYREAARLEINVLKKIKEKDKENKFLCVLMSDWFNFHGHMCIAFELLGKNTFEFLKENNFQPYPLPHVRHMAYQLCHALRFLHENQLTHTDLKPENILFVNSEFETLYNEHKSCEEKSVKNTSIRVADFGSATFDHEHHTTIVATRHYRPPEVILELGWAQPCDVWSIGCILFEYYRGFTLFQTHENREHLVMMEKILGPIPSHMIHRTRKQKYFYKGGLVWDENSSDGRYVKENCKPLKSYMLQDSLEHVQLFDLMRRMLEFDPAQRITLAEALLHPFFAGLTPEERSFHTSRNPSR
SRPK1(h), sequence (Q96SB4 whole entry): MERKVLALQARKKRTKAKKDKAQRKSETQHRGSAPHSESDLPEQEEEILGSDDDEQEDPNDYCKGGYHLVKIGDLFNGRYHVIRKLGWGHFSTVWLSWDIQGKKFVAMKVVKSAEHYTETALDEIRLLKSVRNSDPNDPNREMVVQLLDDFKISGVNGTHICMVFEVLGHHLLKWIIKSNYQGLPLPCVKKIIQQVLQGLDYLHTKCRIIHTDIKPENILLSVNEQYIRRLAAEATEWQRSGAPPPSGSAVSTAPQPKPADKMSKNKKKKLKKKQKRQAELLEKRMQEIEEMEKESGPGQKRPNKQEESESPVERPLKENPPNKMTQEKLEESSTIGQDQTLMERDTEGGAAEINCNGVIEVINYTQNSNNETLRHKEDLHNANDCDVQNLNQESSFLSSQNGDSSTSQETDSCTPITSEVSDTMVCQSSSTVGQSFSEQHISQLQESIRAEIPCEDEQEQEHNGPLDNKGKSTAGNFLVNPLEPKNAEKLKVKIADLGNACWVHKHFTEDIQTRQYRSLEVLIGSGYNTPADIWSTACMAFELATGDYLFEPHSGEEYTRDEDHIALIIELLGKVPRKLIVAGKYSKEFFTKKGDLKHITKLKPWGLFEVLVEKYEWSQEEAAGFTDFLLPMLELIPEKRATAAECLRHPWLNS
T2 sequence (P08069 959-1367 limits assumed): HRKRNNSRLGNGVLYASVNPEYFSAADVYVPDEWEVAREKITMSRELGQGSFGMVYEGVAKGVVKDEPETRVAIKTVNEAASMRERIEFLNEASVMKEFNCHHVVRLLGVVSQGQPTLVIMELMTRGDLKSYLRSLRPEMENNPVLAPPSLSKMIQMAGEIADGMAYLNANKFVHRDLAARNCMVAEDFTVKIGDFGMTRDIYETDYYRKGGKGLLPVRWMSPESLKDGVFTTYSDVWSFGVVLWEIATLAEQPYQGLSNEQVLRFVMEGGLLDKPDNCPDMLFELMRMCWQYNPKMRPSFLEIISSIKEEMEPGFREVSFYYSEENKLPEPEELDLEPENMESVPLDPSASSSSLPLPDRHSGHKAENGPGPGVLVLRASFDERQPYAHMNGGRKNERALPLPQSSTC

With “YARAAARQARAKALNRQLGVA (Mammalian) [MMI-0200]”, the “CLK3(h) % activity” value with CLK3(h) is listed as 76%. Also, in the experiment with PDK1(h), the “PDK1(h) % activity” value amounted to 143%. Moreover, in the experiment with cKit(h), the “cKit(h) % activity” value came out at 110%. Further, the “SRPK1(h) % activity” value with SRPK1(h) stood at 93%. Further, the “IGF-1R(h), activated % activity” value with IGF-1R(h), activated stood at 94%. The “CSK(h) % activity” value with CSK(h) is given as 33%. Also, in the experiment with CaMKIIγ(h), the “CaMKIIγ(h) % activity” value was determined as 94%. Moreover, the “DAPK2(h) % activity” value in the experiment with DAPK2(h) is on record as 92%. For the same sequence, the “EGFR(L861Q)(h) % activity” value with EGFR(L861Q)(h) is 74%. For the same sequence, in the experiment with GCK(h), the “GCK(h) % activity” value came out at 99%. Further, the “FGFR2(h) % activity” value with FGFR2(h) is on record as 73%. Moreover, the “GSK3β(h) % activity” value with GSK3β(h) worked out at 132%. In addition, in the experiment with Syk(h), the “Syk(h) % activity” value is recorded as 36%.

Take “HRRIKAWLKKIKALARQLGVAA (Mammalian) [MMI-0500]”: the “CLK3(h) % activity” value with CLK3(h) is given as 76%. Besides, in the experiment with PDK1(h), the “PDK1(h) % activity” value stood at 178%. For the same sequence, the “cKit(h) % activity” value with cKit(h) is reported as 45%. In addition, the “SRPK1(h) % activity” value with SRPK1(h) was determined as 80%. The “IGF-1R(h), activated % activity” value with IGF-1R(h), activated worked out at 45%. Further, the “CSK(h) % activity” value with CSK(h) turned out to be 2%. The “CaMKIIγ(h) % activity” value with CaMKIIγ(h) is recorded as 3%. The “DAPK2(h) % activity” value with DAPK2(h) was found to be 3%. For the same sequence, the “EGFR(L861Q)(h) % activity” value with EGFR(L861Q)(h) turned out to be 15%. In addition, the “Rsk3(h) % activity” value with Rsk3(h) is listed as 23%. In addition, in the experiment with GCK(h), the “GCK(h) % activity” value is 30%. In the experiment with FGFR2(h), the “FGFR2(h) % activity” value came to 12%. The “Abl(h) % activity” value in the experiment with Abl(h) stood at 16%. Moreover, the “GSK3β(h) % activity” value with GSK3β(h) is 238%. The “Syk(h) % activity” value with Syk(h) was 5%. The “Abl(Y253F)(h) % activity” value with Abl(Y253F)(h) turned out to be 29%. In the experiment with SIK(h), the “SIK(h) % activity” value is reported as 40%.

In the case of KAFAKLAARLYRKALARQLGVAA [MMI-0400], in the experiment with CLK3(h), the “CLK3(h) % activity” value is on record as 84%. In addition, the “PDK1(h) % activity” value with PDK1(h) came out at 159%. In addition, the “cKit(h) % activity” value in the experiment with cKit(h) worked out at 43%. In the experiment with SRPK1(h), the “SRPK1(h) % activity” value is reported as 96%. For the same sequence, in the experiment with IGF-1R(h), activated, the “IGF-1R(h), activated % activity” value worked out at 77%. Further, the “CSK(h) % activity” value with CSK(h) was found to be 16%. In the experiment with CaMKIIγ(h), the “CaMKIIγ(h) % activity” value came out at 3%. Also, the “DAPK2(h) % activity” value with DAPK2(h) was found to be 16%. Besides, the “EGFR(L861Q)(h) % activity” value with EGFR(L861Q)(h) worked out at 22%. In addition, the “Rsk3(h) % activity” value with Rsk3(h) turned out to be 71%. In the experiment with GCK(h), the “GCK(h) % activity” value amounted to 66%. Also, the “FGFR2(h) % activity” value with FGFR2(h) was determined as 18%. Also, the “Abl(h) % activity” value with Abl(h) was determined as 84%. The “GSK3β(h) % activity” value with GSK3β(h) was determined as 202%. In addition, in the experiment with Syk(h), the “Syk(h) % activity” value came out at 9%. Moreover, the “Abl(Y253F)(h) % activity” value in the experiment with Abl(Y253F)(h) was 78%. Also, in the experiment with SIK(h), the “SIK(h) % activity” value is 68%.

As for FAKLAARLYRKALARQLGVAA [MMI-0300], the “CLK3(h) % activity” value in the experiment with CLK3(h) stood at 61%. The “PDK1(h) % activity” value with PDK1(h) turned out to be 135%. In addition, the “cKit(h) % activity” value in the experiment with cKit(h) stood at 53%. The “SRPK1(h) % activity” value with SRPK1(h) is given as 90%. For the same sequence, the “IGF-1R(h), activated % activity” value in the experiment with IGF-1R(h), activated is listed as 80%. Besides, the “CSK(h) % activity” value with CSK(h) was 49%. In addition, the “CaMKIIγ(h) % activity” value in the experiment with CaMKIIγ(h) turned out to be 5%. The “DAPK2(h) % activity” value in the experiment with DAPK2(h) is on record as 32%. The “EGFR(L861Q)(h) % activity” value with EGFR(L861Q)(h) amounted to 25%. In the experiment with Rsk3(h), the “Rsk3(h) % activity” value came out at 76%. In the experiment with GCK(h), the “GCK(h) % activity” value worked out at 70%. Also, in the experiment with FGFR2(h), the “FGFR2(h) % activity” value was determined as 14%. In the experiment with Abl(h), the “Abl(h) % activity” value is 69%. In the experiment with GSK3β(h), the “GSK3β(h) % activity” value was found to be 205%. For the same sequence, the “Syk(h) % activity” value in the experiment with Syk(h) is given as 24%. Also, the “Abl(Y253F)(h) % activity” value with Abl(Y253F)(h) is recorded as 86%. Besides, the “SIK(h) % activity” value with SIK(h) turned out to be 66%.
